± gives the uncertainty stated by the source.

Sequences and labels used below:
B1: Bromodomain adjacent to zinc finger domain protein 2B, residues 1927 to 1982; numbered along this chain, Q9UIF8 (parent)
chain: KSIMKVYCQICRKGDNEELLLLCDGCDKGCHTYCHRPKITTIPDGDWFCPACIAKA

This data set covers variants of B1. As to the kind of experiment: abundance fitness (aPCA) (normalised: wild type 0, dead -1); higher = more abundant; growth selection in yeast, the domain comes from the species named. The following applies: Homo sapiens.
In the case of KSIMKVYCQICRKGDNEELLLLCDGCYKGCHTYCHRPKITTIPDGDWFCPACIAKA, the abundance fitness is -0.085 ± 0.13.

Regarding KSIMKVYCQICRKGDNEELLLLCDGCPKGCHTYCHRPKITTIPDGDWFCPACIAKA, the abundance fitness is -0.173 ± 0.12.

On to KSIMKVYCQICRKGDNEELLLLCDGCCKGCHTYCHRPKITTIPDGDWFCPACIAKA, for which the abundance fitness is -0.187 ± 0.11.

For the variant KSIMKVYCQICRKGDNEELLLLCDGCNKGCHTYCHRPKITTIPDGDWFCPACIAKA, the abundance fitness is -0.096 ± 0.11.

For KSIMKVYCQICRKGDNEELLLLCDGCWKGCHTYCHRPKITTIPDGDWFCPACIAKA, the abundance fitness was -0.069 ± 0.088.

For the variant KSIMKVYCQICRKGDNEELLLLCDGCVKGCHTYCHRPKITTIPDGDWFCPACIAKA, the abundance fitness is -0.222 ± 0.084.

KSIMKVYCQICRKGDNEELLLLCDGCRKGCHTYCHRPKITTIPDGDWFCPACIAKA: the abundance fitness is -0.127 ± 0.074.

With KSIMKVYCQICRKGDNEELLLLCDGCMKGCHTYCHRPKITTIPDGDWFCPACIAKA, the abundance fitness was -0.128 ± 0.19.

Turning to KSIMKVYCQICRKGDNEELLLLCDGCTKGCHTYCHRPKITTIPDGDWFCPACIAKA, the abundance fitness is -0.08 ± 0.11.

As to KSIMKVYCQICRKGDNEELLLLCDGCEKGCHTYCHRPKITTIPDGDWFCPACIAKA, the abundance fitness was 0.109 ± 0.12.

For KSIMKVYCQICRKGDNEELLLLCDGCGKGCHTYCHRPKITTIPDGDWFCPACIAKA, the abundance fitness stood at 0.023 ± 0.065.

KSIMKVYCQICRKGDNEELLLLCDGCKKGCHTYCHRPKITTIPDGDWFCPACIAKA: the abundance fitness is -0.001 ± 0.17.

On to KSIMKVYCQICRKGDNEELLLLCDGSDKGCHTYCHRPKITTIPDGDWFCPACIAKA, for which the abundance fitness is -0.616 ± 0.089.

Regarding KSIMKVYCQICRKGDNEELLLLCDGKDKGCHTYCHRPKITTIPDGDWFCPACIAKA, the abundance fitness was -0.744 ± 0.14.

KSIMKVYCQICRKGDNEELLLLCDGEDKGCHTYCHRPKITTIPDGDWFCPACIAKA: the abundance fitness was -0.676 ± 0.12.

Take KSIMKVYCQICRKGDNEELLLLCDGDDKGCHTYCHRPKITTIPDGDWFCPACIAKA: the abundance fitness was -0.676 ± 0.19.

For the variant KSIMKVYCQICRKGDNEELLLLCDGWDKGCHTYCHRPKITTIPDGDWFCPACIAKA, the abundance fitness was -0.931 ± 0.12.

As to KSIMKVYCQICRKGDNEELLLLCDGHDKGCHTYCHRPKITTIPDGDWFCPACIAKA, the abundance fitness is -1.04 ± 0.27.

On to KSIMKVYCQICRKGDNEELLLLCDGIDKGCHTYCHRPKITTIPDGDWFCPACIAKA, for which the abundance fitness was -0.673 ± 0.4.

Consider KSIMKVYCQICRKGDNEELLLLCDGADKGCHTYCHRPKITTIPDGDWFCPACIAKA, for which the abundance fitness is -0.598 ± 0.11.

On to KSIMKVYCQICRKGDNEELLLLCDGFDKGCHTYCHRPKITTIPDGDWFCPACIAKA, for which the abundance fitness is -0.969 ± 0.3.

On to KSIMKVYCQICRKGDNEELLLLCDGTDKGCHTYCHRPKITTIPDGDWFCPACIAKA, for which the abundance fitness was -0.678 ± 0.11.

As for KSIMKVYCQICRKGDNEELLLLCDGLDKGCHTYCHRPKITTIPDGDWFCPACIAKA, the abundance fitness is -0.819 ± 0.088.

As to KSIMKVYCQICRKGDNEELLLLCDGNDKGCHTYCHRPKITTIPDGDWFCPACIAKA, the abundance fitness was -0.753 ± 0.2.

Turning to KSIMKVYCQICRKGDNEELLLLCDGRDKGCHTYCHRPKITTIPDGDWFCPACIAKA, the abundance fitness is -0.674 ± 0.069.

For the variant KSIMKVYCQICRKGDNEELLLLCDGGDKGCHTYCHRPKITTIPDGDWFCPACIAKA, the abundance fitness is -0.572 ± 0.076.

Turning to KSIMKVYCQICRKGDNEELLLLCDGPDKGCHTYCHRPKITTIPDGDWFCPACIAKA, the abundance fitness was -0.75 ± 0.14.

As for KSIMKVYCQICRKGDNEELLLLCDGYDKGCHTYCHRPKITTIPDGDWFCPACIAKA, the abundance fitness is -0.706 ± 0.13.

For the variant KSIMKVYCQICRKGDNEELLLLCDGQDKGCHTYCHRPKITTIPDGDWFCPACIAKA, the abundance fitness was -0.711 ± 0.15.

KSIMKVYCQICRKGDNEELLLLCDGVDKGCHTYCHRPKITTIPDGDWFCPACIAKA: the abundance fitness was -0.612 ± 0.1.

In the case of KSIMKVYCQICRKGDNEELLLLYDGCDKGCHTYCHRPKITTIPDGDWFCPACIAKA, the abundance fitness is -0.42 ± 0.18.

For KSIMKVYCQICRKGDNEELLLLCDKCDKGCHTYCHRPKITTIPDGDWFCPACIAKA, the abundance fitness is -0.031 ± 0.13.

As for KSIMKVYCQICRKGDNEELLLLCDTCDKGCHTYCHRPKITTIPDGDWFCPACIAKA, the abundance fitness is -0.09 ± 0.1.

As to KSIMKVYCQICRKGDNEELLLLCDACDKGCHTYCHRPKITTIPDGDWFCPACIAKA, the abundance fitness is -0.171 ± 0.084.

On to KSIMKVYCQICRKGDNEELLLLCDLCDKGCHTYCHRPKITTIPDGDWFCPACIAKA, for which the abundance fitness is -0.266 ± 0.09.

As for KSIMKVYCQICRKGDNEELLLLCDICDKGCHTYCHRPKITTIPDGDWFCPACIAKA, the abundance fitness is -0.45 ± 0.26.

Turning to KSIMKVYCQICRKGDNEELLLLCDFCDKGCHTYCHRPKITTIPDGDWFCPACIAKA, the abundance fitness is -0.33 ± 0.19.

KSIMKVYCQICRKGDNEELLLLCDNCDKGCHTYCHRPKITTIPDGDWFCPACIAKA: the abundance fitness is -0.16 ± 0.13.

As to KSIMKVYCQICRKGDNEELLLLCDRCDKGCHTYCHRPKITTIPDGDWFCPACIAKA, the abundance fitness is -0.096 ± 0.072.

In the case of KSIMKVYCQICRKGDNEELLLLCDHCDKGCHTYCHRPKITTIPDGDWFCPACIAKA, the abundance fitness is -0.124 ± 0.17.

Regarding KSIMKVYCQICRKGDNEELLLLCDSCDKGCHTYCHRPKITTIPDGDWFCPACIAKA, the abundance fitness was -0.149 ± 0.081.

For the variant KSIMKVYCQICRKGDNEELLLLCDQCDKGCHTYCHRPKITTIPDGDWFCPACIAKA, the abundance fitness stood at 0.003 ± 0.13.

For KSIMKVYCQICRKGDNEELLLLCDPCDKGCHTYCHRPKITTIPDGDWFCPACIAKA, the abundance fitness is -0.551 ± 0.1.

KSIMKVYCQICRKGDNEELLLLCDDCDKGCHTYCHRPKITTIPDGDWFCPACIAKA: the abundance fitness was -0.192 ± 0.093.

As to KSIMKVYCQICRKGDNEELLLLCDYCDKGCHTYCHRPKITTIPDGDWFCPACIAKA, the abundance fitness was -0.221 ± 0.31.

As for KSIMKVYCQICRKGDNEELLLLCDWCDKGCHTYCHRPKITTIPDGDWFCPACIAKA, the abundance fitness is -0.251 ± 0.096.

Regarding KSIMKVYCQICRKGDNEELLLLCDECDKGCHTYCHRPKITTIPDGDWFCPACIAKA, the abundance fitness is -0.014 ± 0.1.

For the origin of these results see the Human Domainome abundance scans (Beltran et al. 2025).
